From patent US20240026037A1 (Memorial Sloan Kettering, published 2024)

Experiments:
[1] = biological target: T1, Human GPA33 on GPA33+ colorectal cancer cell lines (Colo 205, LS 174T, SW 1222) (human, UniProt Q99795 22-319); test: cell binding to SW1222 Luc cells; IgG format
T1 construct: Endogenous GPA33 on human colorectal cancer cell lines; also called surface human GPA33; GPA33+ tumor cell lines
T1 sequence: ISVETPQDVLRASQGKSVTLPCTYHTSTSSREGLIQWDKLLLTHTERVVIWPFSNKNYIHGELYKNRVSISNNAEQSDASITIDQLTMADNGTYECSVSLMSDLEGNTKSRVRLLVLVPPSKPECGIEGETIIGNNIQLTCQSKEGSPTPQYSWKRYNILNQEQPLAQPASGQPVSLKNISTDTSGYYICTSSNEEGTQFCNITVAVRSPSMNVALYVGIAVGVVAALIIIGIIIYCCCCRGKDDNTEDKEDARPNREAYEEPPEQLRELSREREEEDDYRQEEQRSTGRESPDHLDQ

[2] = biological target: T1, Human GPA33 on GPA33+ colorectal cancer …; test: cell binding to LS174T Luc cells; IgG format
[3] = biological target: T2, Human GPA33 (recombinant protein, Novoprotein) (human, UniProt Q99795 22-235); test: SPR (Biacore), binding to GPA33 protein; IgG format
T2 construct: Bought recombinant protein immobilized on a CM5 chip; also called GPA33 antigen; tumor antigen GPA33
T2 sequence: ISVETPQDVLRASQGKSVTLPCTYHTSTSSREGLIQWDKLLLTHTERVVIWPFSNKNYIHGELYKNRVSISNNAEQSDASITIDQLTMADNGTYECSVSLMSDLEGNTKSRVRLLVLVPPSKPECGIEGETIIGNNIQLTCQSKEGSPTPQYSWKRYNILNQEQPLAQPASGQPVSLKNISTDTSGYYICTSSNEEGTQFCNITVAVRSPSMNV
Procedure: SPR analysis. Human GPA33 (Novoprotein, Summit, NJ) was immobilized on CM5 chips. Five concentrations of 2-fold serially diluted huA33 IgG1 or huA33-BsAbs (starting at 20 nM) were flowed over the chip using a Biacore™ T100 system (GE Healthcare, Chicago, IL). Binding kinetics of huA33 were measured at 25° C. and binding kinetics of huA33-BsAbs were measured at both 25° C. and 37° C. The sensorgrams were fitted with two state binding model for both to derive kinetic parameters.

Binder	EC50 [1]	EC50 [2]	Kd [3]
G3A_chimeric (antibody, V domains shown) VH: EVKLVESGGGLVKPGGSLKLSCAASGFAFSTYDMSWVRQTPEKRLEWVATISSGGSYTYYLDSVKGRFTISRDSARNTLYLQMSSLRSEDTALYYCAPTTVVPFAYWGQGTLVTVSA VL: DIVMTQSQKFMSTSVGDRVSITCKASQNVRTVVAWYQQKPGQSPKTLIYLASNRHTGVPDRFTGSGSGTDFTLTISNVQSEDLADYFCLQHWSYPLTFGSGTKLEVK	1 µg/mL	0.248 µg/mL	0.196 nM
G3A_VK8+VH2 (antibody, V domains shown) VH: EVQLVESGGGLVKPGGSLRLSCAASGFAFSTYDMSWVRQAPGKGLEWVATISSGGSYTYYLDSVKGRFTISRDSAKNSLYLQMNSLRAEDTAVYYCAPTTVVPFAYWGQGTLVTVSA VL: DIQMTQSPSSLSASVGDRVTITCKASQNVRTVVAWYQQKPGKAPKRLIYLASNRHTGVPSRFSGSGSGTEFTLTISNLQPEDFADYYCLQHWSYPLTFGSGTKLEVK	0.993 µg/mL	1.09 µg/mL	1.85 nM
G3A_VK7+VH2 (antibody, V domains shown) VH: EVQLVESGGGLVKPGGSLRLSCAASGFAFSTYDMSWVRQAPGKGLEWVATISSGGSYTYYLDSVKGRFTISRDSAKNSLYLQMNSLRAEDTAVYYCAPTTVVPFAYWGQGTLVTVSA VL: DIQMTQSPSSLSASVGDRVTITCKASQNVRTVVAWYQQKPGKAPKRLIYLASNRHTGVPSRFSGSGSGTEFTLTISNVQPEDFATYYCLQHWSYPLTFGSGTKLEVK	0.795 µg/mL	0.576 µg/mL	1.75 nM
G3A_VK6+VH2 (antibody, V domains shown) VH: EVQLVESGGGLVKPGGSLRLSCAASGFAFSTYDMSWVRQAPGKGLEWVATISSGGSYTYYLDSVKGRFTISRDSAKNSLYLQMNSLRAEDTAVYYCAPTTVVPFAYWGQGTLVTVSA VL: DIQMTQSPSSLSASVGDRVTITCKASQNVRTVVAWYQQKPGKAPKRLIYLASNRHTGVPSRFSGSGSGTEFTLTISNLQPEDFATYFCLQHWSYPLTFGSGTKLEVK	1.07 µg/mL		1.74 nM
G3A_VK3+VH1 (antibody, IgG1, V domains shown) VH: EVQLVESGGGLVKPGGSLRLSCAASGFAFSTYDMSWVRQAPGKGLEWVSTISSGGSYTYYADSVKGRFTISRDNAKNSLYLQMNSLRAEDTAVYYCAPTTVVPFAYWGQGTLVTVSA VL: DIQMTQSPSSLSTSVGDRVTITCKASQNVRTVVAWYQQKPGKAPKTLIYLASNRHSGVPSRFSGSGSGTEFTLTISNLQPEDFATYYCLQHWSYPLTFGSGTKLEVK	0.338 µg/mL	0.642 µg/mL	0.19 nM
G3A_VK5+VH3 (antibody, V domains shown) VH: EVQLVESGGGLVKPGGSLRLSCAASGFAFSTYDMSWVRQAPGKGLEWVATISSGGSYTYYADSVKGRFTISRDSAKNSLYLQMNSLRAEDTAVYYCAPTTVVPFAYWGQGTLVTVSA VL: DIQMTQSPSSLSASVGDRVTITCKASQNVRTVVAWYQQKPGKAPKTLIYLASNRHTGVPSRFSGSGSGTEFTLTISNLQPEDFATYYCLQHWSYPLTFGSGTKLEVK	0.387 µg/mL	0.424 µg/mL	0.238 nM
G3A_VK8+VH1 (antibody, V domains shown) VH: EVQLVESGGGLVKPGGSLRLSCAASGFAFSTYDMSWVRQAPGKGLEWVSTISSGGSYTYYADSVKGRFTISRDNAKNSLYLQMNSLRAEDTAVYYCAPTTVVPFAYWGQGTLVTVSA VL: DIQMTQSPSSLSASVGDRVTITCKASQNVRTVVAWYQQKPGKAPKRLIYLASNRHTGVPSRFSGSGSGTEFTLTISNLQPEDFADYYCLQHWSYPLTFGSGTKLEVK	0.568 µg/mL	0.454 µg/mL	0.975 nM
G3A_VK7+VH1 (antibody, V domains shown) VH: EVQLVESGGGLVKPGGSLRLSCAASGFAFSTYDMSWVRQAPGKGLEWVSTISSGGSYTYYADSVKGRFTISRDNAKNSLYLQMNSLRAEDTAVYYCAPTTVVPFAYWGQGTLVTVSA VL: DIQMTQSPSSLSASVGDRVTITCKASQNVRTVVAWYQQKPGKAPKRLIYLASNRHTGVPSRFSGSGSGTEFTLTISNVQPEDFATYYCLQHWSYPLTFGSGTKLEVK	1.14 µg/mL	0.481 µg/mL	0.888 nM
G3A_VK6+VH1 (antibody, V domains shown) VH: EVQLVESGGGLVKPGGSLRLSCAASGFAFSTYDMSWVRQAPGKGLEWVSTISSGGSYTYYADSVKGRFTISRDNAKNSLYLQMNSLRAEDTAVYYCAPTTVVPFAYWGQGTLVTVSA VL: DIQMTQSPSSLSASVGDRVTITCKASQNVRTVVAWYQQKPGKAPKRLIYLASNRHTGVPSRFSGSGSGTEFTLTISNLQPEDFATYFCLQHWSYPLTFGSGTKLEVK	0.831 µg/mL	0.402 µg/mL	0.884 nM
G3A_VK6+VH3 (antibody, V domains shown) VH: EVQLVESGGGLVKPGGSLRLSCAASGFAFSTYDMSWVRQAPGKGLEWVATISSGGSYTYYADSVKGRFTISRDSAKNSLYLQMNSLRAEDTAVYYCAPTTVVPFAYWGQGTLVTVSA VL: DIQMTQSPSSLSASVGDRVTITCKASQNVRTVVAWYQQKPGKAPKRLIYLASNRHTGVPSRFSGSGSGTEFTLTISNLQPEDFATYFCLQHWSYPLTFGSGTKLEVK	0.614 µg/mL	0.847 µg/mL	1.45 nM
G3A_VK7+VH3 (antibody, V domains shown) VH: EVQLVESGGGLVKPGGSLRLSCAASGFAFSTYDMSWVRQAPGKGLEWVATISSGGSYTYYADSVKGRFTISRDSAKNSLYLQMNSLRAEDTAVYYCAPTTVVPFAYWGQGTLVTVSA VL: DIQMTQSPSSLSASVGDRVTITCKASQNVRTVVAWYQQKPGKAPKRLIYLASNRHTGVPSRFSGSGSGTEFTLTISNVQPEDFATYYCLQHWSYPLTFGSGTKLEVK		0.768 µg/mL	1.62 nM
G3A_VK5+VH1 (antibody, V domains shown) VH: EVQLVESGGGLVKPGGSLRLSCAASGFAFSTYDMSWVRQAPGKGLEWVSTISSGGSYTYYADSVKGRFTISRDNAKNSLYLQMNSLRAEDTAVYYCAPTTVVPFAYWGQGTLVTVSA VL: DIQMTQSPSSLSASVGDRVTITCKASQNVRTVVAWYQQKPGKAPKTLIYLASNRHTGVPSRFSGSGSGTEFTLTISNLQPEDFATYYCLQHWSYPLTFGSGTKLEVK	0.496 µg/mL	0.44 µg/mL	0.171 nM
G3A_VK4+VH3 (antibody, IgG1, V domains shown) VH: EVQLVESGGGLVKPGGSLRLSCAASGFAFSTYDMSWVRQAPGKGLEWVATISSGGSYTYYADSVKGRFTISRDSAKNSLYLQMNSLRAEDTAVYYCAPTTVVPFAYWGQGTLVTVSA VL: DIQMTQSPSSLSASVGDRVTITCKASQNVRTVVAWYQQKPGKAPKTLIYLASNRHTGVPSRFSGSGSGTEFTLTISNLQPEDFATYYCLQHWSYPLTFGSGTKLEVK	1.03 µg/mL	0.279 µg/mL	0.236 nM
G3A_VK3+VH3 (antibody, IgG1, V domains shown) VH: EVQLVESGGGLVKPGGSLRLSCAASGFAFSTYDMSWVRQAPGKGLEWVATISSGGSYTYYADSVKGRFTISRDSAKNSLYLQMNSLRAEDTAVYYCAPTTVVPFAYWGQGTLVTVSA VL: DIQMTQSPSSLSTSVGDRVTITCKASQNVRTVVAWYQQKPGKAPKTLIYLASNRHSGVPSRFSGSGSGTEFTLTISNLQPEDFATYYCLQHWSYPLTFGSGTKLEVK	0.391 µg/mL	0.398 µg/mL	0.241 nM
